Among the data in patent publication US20130034559A1 (AstraZeneca / MedImmune, published 2013) are binding result and Kd values, retold here.

Test [1] has as its target T1, human PD-1/Fc protein (R&D Systems, catalog #1086-PD) (human, UniProt Q15116 25-170).
T1 construct: extracellular domain; Bought; not shown: Fc portion
Nature of the test: ELISA, biotinylated IgG1-TM on coated ECD. On the procedure:
(§1) ELISAs were performed to determine the cross-reactivity of the anti-B7-H1 IgG1-TM antibodies for other immune co-modulatory molecules. […] Murine cross reactivity was also investigated by coating the ECD of murine B7-H1 (R&D Systems, 1019-B7). Biotinylated anti-B7-H1 IgG1-TM diluted at 100 nM in PBS containing 3% dried milk powder, were incubated at room temperature for 2 h to allow binding. Bound biotinylated IgGs were detected with europium N1-labelled streptavidin (Perkin Elmer, 1244-360) at 0.2 ug/mL. […] Primary antibodies were incubated at 5 ug/mL in PBS containing 3% dried milk powder for 2 h at room temperature. Detection was carried out by incubating the secondary antibody anti-mouse IgG Peroxidase conjugate (Sigma, A2554) or anti-rat IgG Peroxidase conjugate (Sigma, A5795) diluted 1:5000 in PBS containing 3% dried milk powder for 1 h at room temperature and subsequent addition of TMB (Sigma, T0440). […] Non-specific binding was determined using wells coated with the IgG1 isotype control at 5 ug/mL. Cross reactivities were calculated at a percent of the specific binding to the antigen relative to human B7-H1.

For test [2], the target named is T2, extracellular domain of human PD-L2 (R&D Systems, 1224-PL) (human, UniProt Q9BQ51 20-220).
T2 construct: extracellular domain; Bought
T2 sequence (looked up): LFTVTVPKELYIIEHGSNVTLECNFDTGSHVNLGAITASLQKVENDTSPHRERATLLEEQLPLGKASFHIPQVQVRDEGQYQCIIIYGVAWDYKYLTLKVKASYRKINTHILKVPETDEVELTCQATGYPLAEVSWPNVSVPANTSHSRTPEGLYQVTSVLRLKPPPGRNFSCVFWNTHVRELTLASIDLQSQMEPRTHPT
The test can be described thus: ELISA, biotinylated IgG1-TM on coated ECD. On the procedure:
as §1
A general note: ELISA stands for enzyme-linked immunosorbent assay.

For test [3], the target named is T3, extracellular domain of human B7-H2 (R&D Systems, 165-B7) (human, UniProt O75144 19-256).
T3 construct: extracellular domain; Bought
T3 sequence (looked up): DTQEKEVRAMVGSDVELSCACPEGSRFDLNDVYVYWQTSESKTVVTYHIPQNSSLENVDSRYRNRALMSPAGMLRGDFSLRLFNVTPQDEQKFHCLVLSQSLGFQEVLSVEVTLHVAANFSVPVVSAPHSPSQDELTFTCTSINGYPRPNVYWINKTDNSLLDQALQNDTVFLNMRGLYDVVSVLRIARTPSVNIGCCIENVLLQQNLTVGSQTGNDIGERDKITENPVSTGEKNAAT
Nature of the test: ELISA, biotinylated IgG1-TM on coated ECD. On the procedure:
as §1

Test [4] deals with T4, extracellular domain of human CD28 (R&D Systems, 342-CD) (human, UniProt P10747 19-152).
T4 construct: extracellular domain; Bought
Nature of the test: ELISA, biotinylated IgG1-TM on coated ECD. The procedure: as §1

Test [5] addresses T5, extracellular domain of human CTLA-4 (R&D Systems, 325-CT) (human, UniProt P16410 36-161).
T5 construct: extracellular domain; Bought
T5 sequence (looked up): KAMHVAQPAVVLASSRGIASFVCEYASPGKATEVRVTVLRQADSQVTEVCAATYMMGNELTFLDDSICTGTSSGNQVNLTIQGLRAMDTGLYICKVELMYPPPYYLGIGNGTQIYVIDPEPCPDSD
The test can be described thus: ELISA, biotinylated IgG1-TM on coated ECD. The procedure:
as §1

Test [6] has as its target T6, extracellular domain of murine B7-H1 (R&D Systems, 1019-B7) (murine, UniProt Q9EP73 19-239).
T6 construct: extracellular domain; Bought
Nature of the test: ELISA, biotinylated IgG1-TM on coated murine B7-H1 ECD. On the procedure: as §1

The target of test [7] is T7, recombinant monomeric cynomologus B7-H1 FlagHis10 extracellular domain (cynomologus).
T7 construct: extracellular domain; also called CYNO B7H1
The test can be described thus: SPR (BIAcore T100), IgG captured via protein G, monomeric cynomologus B7-H1 ECD as analyte, 25 °C, 1:1 model. The procedure: The binding affinity and kinetic parameters of anti-B7-H1 antibodies in the IgG1-TM format to monomeric human and cynomologus B7-H1 were determined by surface plasmon resonance using a BIAcore T100 instrument (BIAcore, Uppsala, Sweden). In brief, experiments were performed at 25° C. using HBS-EP buffer (10 mM HEPES, 150 mM NaCl, 3 mM EDTA, 0.05% v/v surfactant P20) as running buffer. IgGs were affinity captured on the surface of a CM5 sensor chip (BIAcore) via protein G, which was amine coupled onto the CM5 surface to achieve the density of ˜500 Response Units (RU), according to the manufacturer's instructions (BIAapplications Handbook, BIAcore). Recombinant monomeric human or cynomologus B7-H1 FlagHis₁₀ extracellular domains (ECDs) were used as analytes. […] All measurements were baseline corrected by subtracting the sensorgram obtained with the control (activated-deactivated) flow cell, as well as double referenced with blank (zero analyte concentration) injections. Data were analyzed using the T-100 BIAevaluation software package and fitted to a simple 1:1 Langmuir binding model with local Rₘₐₓ and bulk refractive index set to 0. Data were calculated from at least two independent experiments. Mass transport effects were limited by keeping the level of affinity-captured IgGs below 250 RU.
A general note: Surface plasmon resonance follows binding to a sensor surface in real time, without labels.

T4 sequence (P10747 19-152): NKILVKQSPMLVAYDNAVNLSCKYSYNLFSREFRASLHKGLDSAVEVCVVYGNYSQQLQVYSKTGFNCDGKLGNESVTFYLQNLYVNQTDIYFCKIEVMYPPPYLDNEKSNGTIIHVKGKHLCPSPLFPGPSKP
T1 sequence (Q15116 25-170): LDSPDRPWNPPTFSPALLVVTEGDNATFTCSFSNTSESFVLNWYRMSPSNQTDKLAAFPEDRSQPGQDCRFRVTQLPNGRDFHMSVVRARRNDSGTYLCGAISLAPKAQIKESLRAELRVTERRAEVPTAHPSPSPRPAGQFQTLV
T6 sequence (Q9EP73 19-239): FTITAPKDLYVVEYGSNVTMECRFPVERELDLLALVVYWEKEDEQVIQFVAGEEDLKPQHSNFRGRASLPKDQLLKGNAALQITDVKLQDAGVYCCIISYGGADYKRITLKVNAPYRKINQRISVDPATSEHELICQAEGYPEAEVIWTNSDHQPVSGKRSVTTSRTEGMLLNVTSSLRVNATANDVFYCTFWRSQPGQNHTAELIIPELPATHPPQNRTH

B1: 2.14H9OPT (antibody, V domains shown)
VH: EVQLVESGGGLVQPGGSLRLSCAASGFTFSRYWMSWVRQAPGKGLEWVANIKQDGSEKYYVDSVKGRFTISRDNAKNSLYLQMNSLRAEDTAVYYCAREGGWFGELAFDYWGQGTLVTVSS
VL: EIVLTQSPGTLSLSPGERATLSCRASQRVSSSYLAWYQQKPGQAPRLLIYDASSRATGIPDRFSGSGSGTDFTLTISRLEPEDFAVYYCQQYGSLPWTFGQGTKVEIK
notes: Germlined VL; human IgG1-TM (L234F, L235E, P331S), kappa
On to B1, for which the binding result in test [1], in test [2], in test [3], in test [4], in test [5] and in test [6] was “no binding (tested: 100 nM)” each time. Also, the dissociation constant Kd (in general, the equilibrium constant for the complex coming apart) in test [7] is 0.367 nM.
